# Measurements taken from the supplement of paper PMC10567573.
# ± gives the standard deviation.
# Experiment: protein stability index of a GFP-peptide fusion (GPS, HEK-293T) (PSI 1-6); higher = more stable
# [1] = treatment: DMSO, c terminus: a fixed tail appended
# [2] = treatment: MLN4924 1 uM, 8 h, c terminus: a fixed tail appended
# [3] = treatment: DMSO, c terminus: native
# [4] = treatment: MLN4924 1 uM, 8 h, c terminus: native
# 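Also: 24-mer peptide tiles fused after GFP, lentivirally expressed, FACS-sorted into six equal bins by GFP/DsRed ratio, decoded by Illumina sequencing, PSI is the read-weighted mean bin number.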
Sequence,protein stability index [1],protein stability index [2],protein stability index [3],protein stability index [4]
AAAEFSSLLRRIKGKLFTWNILKT [SLC35F2],3.05 ± 0.56,2.94 ± 0.28,–,–
AAAGAVGLERRDWSPSPPATPEQG [SPDEF],5.09 ± 0.26,5.18 ± 0.17,–,–
AADVWSLGVALFTMLAGHYPFQDS [TRIB3],2.96 ± 0.098,2.94 ± 0.2,–,–
AAKMYHQLKKCETRKLSPGKKRCK [SMG5],3.92 ± 0.35,4.07 ± 0.37,–,–
AANVVSAKRNRLAPAHVDEQVFLY [ZBED1],2.55 ± 0.12,2.47 ± 0.27,–,–
AASLAGCLGALCENTCLLRGFSGG [TSPAN10],2.22 ± 0.57,2.37 ± 0.58,–,–
ADFGSATFDHEHHTTIVATRHYRP [CLK3],3.79 ± 0.21,3.92 ± 0.29,–,–
ADGQRHHSKLLVSGFWGVARHFNY [DHCR7],2.27 ± 0.43,2.14 ± 0.27,–,–
ADIPQDQLVVMHPTPQVDELDILP [BTBD10],5.11 ± 0.17,5.24 ± 0.15,–,–
ADSEQADIARMLYKDTCHELDELQ [ZMYND11],5.14 ± 0.24,4.99 ± 0.2,–,–
ADSFESSDSLLQSWNSQSSLLDVQ [ETS2],4.38 ± 0.12,4.56 ± 0.12,–,–
AEKKREAKQRAKEAQERELRKREK [LRRC59],5.38 ± 0.12,5.33 ± 0.11,–,–
AEKLKVQALKDRGLSIPRADTLDE [LSM1],4.93 ± 0.3,4.98 ± 0.22,–,–
AEVSVISEADPQALLQAMKDLDGM [FBF1],4.52 ± 0.19,4.36 ± 0.2,–,–
AFADIIHSLKESGQLWLDAYLHQ [FADS1],–,–,2.7 ± 0.78,2.49 ± 0.58
AFVSNSPKLFCPKNRSFDIDAIYS [PLD5],2.15 ± 0.8,2.51 ± 0.69,–,–
AGCCQVFDALDDYEHHYHTLHGNV [ZNF511],2.84 ± 0.35,2.88 ± 0.23,–,–
AGDVIFLLSRINKDWLEGTVRGAT [NCF4],3.21 ± 0.31,3.2 ± 0.4,–,–
AGGSARRPDTGDDAAGHGFCYCAG [GMCL1],4.11 ± 0.46,4.13 ± 0.19,–,–
AGKALVISGREVFEFRPELVNDDD [ZC3H15],4.21 ± 0.57,4.23 ± 0.35,–,–
AGRNVLRWDLSPEQIKTRTEELIV [NLN],2.52 ± 0.34,3.23 ± 0.47,–,–
AGRPRAERRPRRVEAERPHSLIGV [FAM189A2],4.05 ± 0.15,3.94 ± 0.21,–,–

Sequence,protein stability index [1],protein stability index [2],protein stability index [3],protein stability index [4]
AGTPGYLSPEVLRKDPYGKPVDMW [CAMK2D],3.34 ± 0.5,3.25 ± 0.42,–,–
AIRRRNVRGEDSGRKPERRRLKTT [DAPK3],4.644 ± 0.043,4.69 ± 0.9,–,–
AKARDLYKGRQLQGCPGAKKHEFL [SMOC2],3.03 ± 0.3,3.2 ± 0.34,–,–
AKGKVQAELSQPLTAGGAISELL [RBBP5],–,–,4.18 ± 0.3,3.91 ± 0.34
AKLALFYDWLFFSPDKDSIMNIEP [INTS3],2.04 ± 0.34,1.9 ± 0.43,–,–
AKMLLHEGQHPAQLRSDVCTPGGT [PYCR3],4.29 ± 0.5,4.58 ± 0.9,–,–
AKNLQEAEEWYKSKYADLSDAANR [PRPH],4.43 ± 0.18,4.48 ± 0.22,–,–
AKVKLVFVEDQAVVETVFFLTSRT [ZSWIM9],3.31 ± 0.38,3.01 ± 0.5,–,–
ALATRALPCPAHVVFRYQGVRMS [FCHSD1],–,–,3.1 ± 0.67,2.58 ± 0.84
ALLDSLPPPVESELALFQMSVLWL [KLHL14],2.45 ± 0.23,2.03 ± 0.19,–,–
ALSTMGTLICRKLGGVKKSATLRS [TPD52L3],2.6 ± 0.2,2.67 ± 0.31,–,–
AMFRLEHGEADRSTLKKALPTLSH [YJU2B],3.33 ± 0.16,3.38 ± 0.17,–,–
AMPDPTVPDSDIKALTTLCDLADR [ESRRG],5.11 ± 0.28,5.15 ± 0.16,–,–
ANAFQQEAQTSGKERLLLSAAVPA [CHIT1],4.03 ± 0.33,4.18 ± 0.28,–,–
ANQLIDIISSDELNVRSEEQVFNA [KLHL20],4.42 ± 0.21,4.34 ± 0.25,–,–
ANSDRASIGRRRTELRRSGSSRSP [PLEKHN1],4.79 ± 0.3,5.2 ± 0.21,–,–
ANTIRGGGCYFGPDVTQQLLQKYN [PPEF2],2.44 ± 0.35,2.59 ± 0.41,–,–
APLGYKEPERQVQHEESTEGEADH [UFD1],5.55 ± 0.22,5.5 ± 0.3,–,–
APLVQPSKNDNGKPDSVGLPPCAV [PCMTD1],5.09 ± 0.15,5.07 ± 0.22,–,–
APNAWQVIKGVLFRIFIIWAISSW [CLPTM1],2.94 ± 0.19,2.89 ± 0.53,–,–
AQDSIELLTTSGIQFKKHEEEGIE [CNOT7],5.46 ± 0.24,5.48 ± 0.34,–,–
AQPNYIPTQQDVLRTRVKTTGIVE [GNAI1],4.19 ± 0.23,4.27 ± 0.36,–,–

Sequence,protein stability index [1],protein stability index [2],protein stability index [3],protein stability index [4]
AQRSAHCSRPSGSSSSSGVLMVGP [CSNK1G1],3.65 ± 0.24,3.84 ± 0.14,–,–
AQTTSEAAMEGATLDQTTSEEAPG [HDAC6],5.64 ± 0.28,5.54 ± 0.24,–,–
ARDRQPSDFKTDKEGGQAGSGQRV [ELOA2],5.26 ± 0.33,5.26 ± 0.26,–,–
AREVKLLLLGAGESGKSTIVKQMK [GNAI1],2.73 ± 0.25,2.62 ± 0.26,–,–
ARGRHVGSSETNLLQHLLEACGRC [PYCR3],2.71 ± 0.88,3.17 ± 1.4,–,–
ARLMLESEYRSDIINAKSNDGWTP [ASB7],2.65 ± 0.28,3.15 ± 0.15,–,–
ARNNNDPGRLTEALCLEVRPTYFE [RNF180],4.97 ± 0.23,4.96 ± 0.18,–,–
ARRESGGRPIKPPKKDLEDGEVPQ [BRD3],5.58 ± 0.21,5.38 ± 0.32,–,–
ASEEGSESEGSESSGRSCRNERSI [SMG5],5.54 ± 0.3,5.45 ± 0.31,–,–
ASEYCPGKLSWGTMARALGRFKLS [WDR88],2.49 ± 0.42,2.67 ± 0.29,–,–
ASRTSTIFLNGNRERPLNVFCDME [TNXB],3.09 ± 0.42,3.07 ± 0.34,–,–
ASSPSIRQKKLMHKLQEEKAFREE [CCDC70],4.24 ± 0.17,4.66 ± 0.14,–,–
ATFVDKKRDLLGALKYWKKAMNMR [FEM1C],1.95 ± 0.17,2.13 ± 0.46,–,–
ATGFHFNAMTCEGCKGFFRRSMKR [VDR],2.63 ± 0.18,2.9 ± 0.21,–,–
ATTISTSEDGSYGTDVTRCICGFT [KMT2E],3.46 ± 0.21,3.6 ± 0.39,–,–
AVEGLTEAEEEELRAELTKVEEEI [TPD52L2],5.6 ± 0.25,5.54 ± 0.12,–,–
AYDWVGRPIPTPVGSVHVDSGASA [CSNK1G1],3.94 ± 0.29,4.08 ± 0.16,–,–
AYDYAKEVNSAEELEGLIADPDEM [FEM1C],5.68 ± 0.13,5.51 ± 0.56,–,–
CALGDHGCEHSCVSSEDSFVCQCF [MATN2],4.25 ± 0.35,4.33 ± 0.3,–,–
CEERWLVIDRKVYNISEFTRRHPG [FADS1],2.1 ± 0.3,2.15 ± 0.33,–,–
CEGKPYNQKSDIWALGCVLYELAS [NEK8],3.08 ± 0.74,2.88 ± 0.72,–,–
